From paper PMC3501484

Target: Flk1 (UniProt P35918)
Chain of UniProt P35918 (P35918 20-1345): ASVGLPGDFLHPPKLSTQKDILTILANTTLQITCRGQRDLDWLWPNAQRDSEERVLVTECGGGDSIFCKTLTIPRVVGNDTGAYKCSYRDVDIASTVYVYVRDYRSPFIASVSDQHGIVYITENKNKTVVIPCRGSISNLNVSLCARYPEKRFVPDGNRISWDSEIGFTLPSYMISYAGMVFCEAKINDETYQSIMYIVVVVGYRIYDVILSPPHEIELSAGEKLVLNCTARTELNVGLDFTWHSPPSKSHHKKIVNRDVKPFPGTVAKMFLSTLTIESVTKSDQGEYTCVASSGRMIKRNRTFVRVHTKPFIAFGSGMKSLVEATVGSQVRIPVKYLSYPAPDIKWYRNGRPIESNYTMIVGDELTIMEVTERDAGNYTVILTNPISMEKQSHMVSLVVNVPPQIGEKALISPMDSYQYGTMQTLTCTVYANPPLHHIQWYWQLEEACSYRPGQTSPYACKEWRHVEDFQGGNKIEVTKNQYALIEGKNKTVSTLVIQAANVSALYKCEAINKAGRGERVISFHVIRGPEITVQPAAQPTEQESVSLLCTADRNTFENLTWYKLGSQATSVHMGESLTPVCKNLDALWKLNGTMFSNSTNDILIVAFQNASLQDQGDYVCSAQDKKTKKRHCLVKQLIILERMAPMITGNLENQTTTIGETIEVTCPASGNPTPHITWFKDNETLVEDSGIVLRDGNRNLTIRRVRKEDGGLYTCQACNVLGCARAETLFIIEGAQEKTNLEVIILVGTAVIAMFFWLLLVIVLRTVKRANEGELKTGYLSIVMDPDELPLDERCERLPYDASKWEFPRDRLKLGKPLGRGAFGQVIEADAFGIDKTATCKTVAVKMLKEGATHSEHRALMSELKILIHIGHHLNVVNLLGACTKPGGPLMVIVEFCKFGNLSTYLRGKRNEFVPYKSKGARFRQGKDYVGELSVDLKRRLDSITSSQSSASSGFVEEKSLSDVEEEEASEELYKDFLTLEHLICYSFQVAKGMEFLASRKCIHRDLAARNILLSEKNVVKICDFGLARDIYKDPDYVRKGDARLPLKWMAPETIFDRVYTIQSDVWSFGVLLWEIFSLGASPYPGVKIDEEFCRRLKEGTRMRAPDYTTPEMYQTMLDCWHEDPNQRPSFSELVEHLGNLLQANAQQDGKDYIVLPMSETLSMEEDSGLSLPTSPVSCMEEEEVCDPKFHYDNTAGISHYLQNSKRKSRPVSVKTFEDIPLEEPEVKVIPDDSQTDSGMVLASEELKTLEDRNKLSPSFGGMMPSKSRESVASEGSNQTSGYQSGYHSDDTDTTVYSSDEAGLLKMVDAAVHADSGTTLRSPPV

3.9 kb Etv2 luciferase reporter (standardized to Renilla) in 293T cells cotransfected with the Flk1 expression vector, VEGF 50 ng/ml for 2, 6 or 18 hours: 15 fold
Substance: VEGF 165 (ligand)
